The text below walks through data of PMC4762007, “Insight into Coenzyme A cofactor binding and the mechanism of acyl-transfer in an acylating aldehyde dehydrogenase from Clostridium phytofermentans” (Scientific Reports, 2016).

Series [1] has as its target T1, Cphy1178(20–462) (Lachnoclostridium phytofermentans, UniProt A9KN57).
T1 construct: gene Cphy_1178; E. coli BL21(DE3), pET28a; tag state not clearly stated; tetramer 4 x 47,452 Da; also misprinted as 20-426
T1 sequence (A9KN57 20-462): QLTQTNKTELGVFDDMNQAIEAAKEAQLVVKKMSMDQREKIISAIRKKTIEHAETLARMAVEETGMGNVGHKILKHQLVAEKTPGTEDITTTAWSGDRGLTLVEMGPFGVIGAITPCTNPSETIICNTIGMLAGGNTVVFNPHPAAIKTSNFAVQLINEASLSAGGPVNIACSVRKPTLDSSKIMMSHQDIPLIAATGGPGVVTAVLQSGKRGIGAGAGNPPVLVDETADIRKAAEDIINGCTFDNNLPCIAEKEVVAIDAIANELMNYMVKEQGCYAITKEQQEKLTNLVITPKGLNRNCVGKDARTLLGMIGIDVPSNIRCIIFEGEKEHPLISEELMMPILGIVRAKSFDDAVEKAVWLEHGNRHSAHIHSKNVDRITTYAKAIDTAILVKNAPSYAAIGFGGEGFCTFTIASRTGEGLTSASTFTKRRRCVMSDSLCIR
Kind of series: NADH formation. The series is classed as biochemical. As to conditions: substrate inhibition; 0.66 mM NAD+, 100 mM KCl, 10 mM 2-mercaptoethanol, no CoA, pH 8.0, 21 °C.

The target in series [2] is T1, Cphy1178(20–462). In words: LC-MS detection of propionyl-CoA. The series is classed as biochemical. As to conditions: 100 µM CoA, 75 µM NAD+, 10 mM propionaldehyde, 100 mM KCl, pH 8.0, room temperature.
For series [3], the target named is T1, Cphy1178(20–462). In words: LC-MS. The note with it: 100 µM CoA, 75 µM NAD+, 10 mM propionaldehyde, 100 mM KCl, pH 8.0, room temperature. It is filed as biochemical.
The target in series [4] is Cphy1178(20–462), acylating aldehyde dehydrogenase from the Clostridium phytofermentans fucose/rhamnose utilisation BMC, N-terminal truncation (Clostridium phytofermentans). Kind of series: native MS; nano-ESI ion-mobility MS (Synapt G2); protein buffer-exchanged into 100 mM ammonium acetate pH 7.0; tetramer.
The target is the same in series [5]. In words: native MS; solution-phase disassembly: tetramer disrupted by addition of 40% methanol (v/v) prior to MS analysis; tetramer to dimers and monomers.
Series [6] has the same target. In words: crystal structure; X-ray, space group I 41 2 2, one chain in the asymmetric unit; tetramer generated by crystal symmetry (D2); crystals from 0.1 M sodium acetate pH 4.7, 1.8 M ammonium sulphate, soaked with 10 mM NAD+.
Substrate in series [7]: CCCCC=O
Kind of series: purified protein. It is filed as biochemical, Lachnoclostridium phytofermentans. The note with it: 0.66 mM NAD+, 100 mM KCl, 10 mM 2-mercaptoethanol, no CoA, pH 8.0, 21 °C.

Substrate in series [8]: CCC=O
Kind of series: purified protein. It is filed as biochemical, Lachnoclostridium phytofermentans. The note with it: 0.66 mM NAD+, 100 mM KCl, 10 mM 2-mercaptoethanol, no CoA, pH 8.0, 21 °C.

Substrate in series [9]: CCCC=O
Kind of series: purified protein. The series is classed as biochemical, Lachnoclostridium phytofermentans. As to conditions: 0.66 mM NAD+, 100 mM KCl, 10 mM 2-mercaptoethanol, no CoA, pH 8.0, 21 °C.

Substrate in series [10]: CC=O
In words: purified protein. It is filed as biochemical, Lachnoclostridium phytofermentans. The note with it: 0.66 mM NAD+, 100 mM KCl, 10 mM 2-mercaptoethanol, no CoA, pH 8.0, 21 °C.

Substrate in series [11]: CCCCCC=O
In words: purified protein. The note with it: 0.66 mM NAD+, 100 mM KCl, 10 mM 2-mercaptoethanol, no CoA, pH 8.0, 21 °C.

For the molecule `CCCCCC=O` [Hexanaldehyde], the “Ki” value on Cphy1178(20–462) [1] was determined as 23.52 ± 1.28 mM.
Turning to `CCCCC=O` [Pentanaldehyde], the “Ki” value at Cphy1178(20–462) [1] is on record as 12.61 ± 0.46 mM.
As to `CCC=O` [Propionaldehyde], at Cphy1178(20–462) [1], the “Ki” value was found to be 17.31 ± 0.46 mM.
On to `CC(C)(COP(=O)(O)OP(=O)(O)OC[C@H]1O[C@@H](n2cnc3c(N)ncnc32)[C@H](O)[C@@H]1OP(=O)(O)O)[C@@H](O)C(=O)NCCC(=O)NCCS` [CoA], for which the “LC-MS detection of propionyl-CoA” value at Cphy1178(20–462) [2] was “reaction mixtures containing NAD^+ and CoA”.
Take `CCC(=O)SCCNC(=O)CCNC(=O)[C@H](O)C(C)(C)COP(=O)(O)OP(=O)(O)OC[C@H]1O[C@@H](n2cnc3c(N)ncnc32)[C@H](O)[C@@H]1OP(=O)(O)O` [propionyl-CoA]: the LC-MS entry on Cphy1178(20–462) [3] is “LC-MS analysis confirmed the presence of the propionyl-CoA product”.
By stoichiometry N is commonly meant the number of molecules, sites or subunits per partner or assembly. For the molecule “Cphy1178(20–462), acylating aldehyde dehydrogenase from the Clostridium phytofermentans fucose/rhamnose utilisation BMC, N-terminal truncation (enzyme)”, the stoichiometry N in series [4] was determined as 4; in series [5], 2; in series [6] it was 4.

B1: Cphy1178(20–462) (Lachnoclostridium phytofermentans ISDg) (protein)
chain: T1 sequence (A9KN57 20-462)
notes: E. coli BL21(DE3), pET28a; tag state not clearly stated; tetramer 4 x 47,452 Da; also misprinted as 20-426
Broadly, the Km is the substrate concentration at which the rate is half of its maximum. What is called kcat is the number of substrate molecules converted per active site and unit of time at saturation. As a reminder, the kcat/Km is the turnover number divided by the Michaelis constant. For B1, the Km in “purified protein [7]” amounted to 2200 ± 700 µM; in “purified protein [8]” it was 820 ± 20 µM; in the series “purified protein [9]”, 1740 ± 70 µM; in “purified protein [10]”, 5160 ± 100 µM; in “purified protein [11]” it was 2900 ± 100 µM. Also, the kcat was 5.44 ± 0.1 s⁻¹ in the series “purified protein [7]”; 3.45 ± 0.03 s⁻¹ in the series “purified protein [8]”; 3.44 ± 0.7 s⁻¹ in the series “purified protein [9]”; 1.62 ± 0.02 s⁻¹ in “purified protein [10]”; 5.61 s⁻¹ in “purified protein [11]”. For the same molecule, the kcat/Km in the series “purified protein [7]” turned out to be 2470 M⁻¹ s⁻¹; in “purified protein [8]”, 4210 M⁻¹ s⁻¹; in the series “purified protein [9]”, 1980 M⁻¹ s⁻¹; in the series “purified protein [10]”, 310 M⁻¹ s⁻¹; in the series “purified protein [11]”, 1930 M⁻¹ s⁻¹.
